The text below walks through data of article PMC9775641, “Conformational Dynamics of the Receptor-Binding Domain of the SARS-CoV-2 Spike Protein” (Biomedicines, 2022).

The target in the experiment is T1, Wild-type (WT) receptor-binding domain (RBD) of SARS-CoV-2 spike protein, 330-528 aa fragment (SARS-CoV-2, wild type (Wuhan-1), UniProt P0DTC2).
T1 construct: also called WT RBD; wild-type RBD
In words: SPR. Particulars: both partners purified.

B1: SARS-CoV-2 neutralizing antibody P4A1 (full-length IgG1) (antibody, V domains shown)
VH: EVQLVESGGGLIQPGGSLRLSCAASGFIVSSNYMSWVRQAPGKGLEWVSIIYSGGSTFYADSVKGRFTISRDNSKNTLYLQMNSLRVEDTAVYYCARDLQELGSLDYWGQGTLVTVSS
VL: DIQMTQSPSSVSASVGDRVTITCRASQGISSWLAWYQQKPGKAPKLLIYAASSLQSGVPSRFSGSGSGTDFTLTISSLQPEDFATYYCQEANSFPYTFGQGTKLEIK
notes: also called P4AI; Ab
For B1, the kon (usually a measure of how fast the partners come together) stood at 770000 M⁻¹ s⁻¹.
